{
  "source": "patent US20070054848A1",
  "about": "“Composition and method for nerve regeneration” (priority 2003, published 2007)",
  "molecules": {"B1": {"name": "p75 in which alanine was replaced with valine at amino acid 423: p75 with alanine replaced with valine at amino acid 423 in positions 273-427 of SEQ ID NO: 4 (protein, listed as Homo sapiens)", "chain": "KRWNSCKQNKQGANSRPVNQTPPPEGEKLHSDSGISVDSQSLHDQQPHTQTASGQALKGDGGLYSSLPPAKREEVEKLLNGSAGDTWRHLAGELGYQPEHIDSFTHEACPVRALLASWATQDSATLDALLAALRRIQRADLVESLCSESTVTSPV"}, "B2": {"name": "p75 ICD: intracellular domain (ICD) of p75, GST-fused (protein)", "chain": "KRWNSCKQNKQGANSRPVNQTPPPEGEKLHSDSGISVDSQSLHDQQTHTQTASGQALKGDGNLYSSLPLTKREEVEKLLNGDTWRHLAGELGYQPEHIDSFTHEACPVRALLASWGAQDSATLDALLAALRRIQRADIVESLCSESTATSPV", "modifications": "left off: a dimerising Fc or GST", "notes": "intracellular domain (ICD) of p75, GST-fused"}},
  "key": {"nerve regeneration": {"test_system": "nerve regeneration", "test": "Similar experiments with modified amino acid agents (Example 2-8)", "procedure": "Similar experiments were carried out using Pep5 in which alanine was added to the C terminus of the sequence (SEQ ID NO: 2), antibodies for the extracellular domain of p75, and p75 in which alanine was replaced with valine at amino acid 423 in positions 273-427 of SEQ ID NO: 4."}, "[1]": {"test_system": "RhoA complexed with Rho GDI", "test": "In vitro nucleotide exchange assay", "type": "biochemical", "conditions": "high Mg2+ concentrations; 90 nM Dbl", "procedure": "Lipid-modified RhoA was purified from yeast membranes as described (Forget, M. A., Desrosiers, R. R., Gingras, D. & Beliveau, R., Biochem. J. 361, 243-54(2002)). [^3H]GDP- or GDP-RhoA complexed with Rho GDI was obtained by first incubating GDP-RhoA with or without [^3H]GDP, followed by incubation with Rho GDI for 30 min, as described previously (Takahashi, K. et al., J. Biol. Chem. 272, 23371-23375 (1997)). The sample, subjected to gel filtration, was equilibrated with 20 mM Tris-HCl (pH 7.5) containing 5 mM MgCl2, 1 mM dithiothreitol and 0.1% CHAPS. The GDP dissociation and GTP binding assays were carried out by the filter binding method as described previously (Hart, M. J., Eva, A., Evans, T., Aaronson, S. A. & Cerione, R. A., Nature 354, 311-314 (1991)). In the [^3H]GDP dissociation assay, 50 nM of the complex was incubated for 20 min with various concentrations of GST-fused proteins in a reaction mixture (50 μl) containing 30 mM Tris-HCl (pH 7.5), 5 mM or 0.5 μM MgCl2, 1 (for low Mg) or 10 (for high Mg) mM EDTA, 0.1 mM GTP, 1 mM dithiothreitol, 0.12% CHAPS and 0.2 mg/ml bovine serum albumin. In the [^35S] GTPγS binding assay, the complex was incubated as described above except that 1 μM [^35S] GTPγS was used instead of 0.1 mM GTP. At the indicated time, an aliquot of the reaction sample was removed, and passed through nitrocellulose filters (IPVH 000, Millipore). […]"}},
  "data": [
    {"molecule": "B1", "values": [
      {"measurement": "nerve regeneration", "setting": "nerve regeneration", "value": "nerve regeneration was similarly observed"}
    ]},
    {"molecule": "B2", "values": [
      {"measurement": "Dbl stimulated dissociation of GDP from GDP-RhoA complexed with Rho GDI", "setting": "[1]", "value": "showed the inhibitory effect to the same extent as p75 HD"}
    ]}
  ]
}
